Test results as given in article PMC11903750.

Legend:
[1] = target: 30S ribosomal subunit (E. coli) (UniProt P0A7R9); assay: FRET or BRET; as a4, with 5 µM edeine
[2] = target: 30S ribosomal subunit (E. coli) (UniProt P0A7R9); assay: FRET or BRET; as a4, with 5 µM GE81112

**Q.** What does the source list for “IF3 E166C, double-labelled (IF3DL) (from UniProt P0A707 1-180) (natural protein)”?
**A.** fold reduction of koff with edeine against no antibiotic [1]: 4 fold; fold reduction of koff with GE81112 against no antibiotic [2]: 2 fold
